Source: paper PMC3136475

How the values were obtained:
[1] = target: S453P C-terminal peptide (CTP), His6-tagged, released from the chain by trypsin cleavage of S453P proaerolysin (Aeromonas hydrophila); assay: pull-down; proaerolysin processed with trypsin agarose beads at pH 8, incubated with His-bind resin preloaded with nickel (held by the His6 tag of the CTP), 4°C, 30 min, extensively washed; SDS-PAGE and Coomassie staining
[2] = target: S453P C-terminal peptide (CTP), His6-tagged, released from the chain by trypsin cleavage of S453P proaerolysin (Aeromonas hydrophila); assay: SPR; His-tagged proaerolysin bound to nickel charged NTA sensor chip via the His tag at the C-terminus of the CTP; trypsin added and release of the mature toxin followed; apparent Koff, by the authors only comparative

aerolysin (mature toxin obtained by trypsin cleavage of proaerolysin) (from UniProt P09167 24-445) (natural protein)
percent of the total aerolysin in the unbound fraction (released from the bead-bound CTP) [1]: 40% | koff [2]: 0.026 s⁻¹
